# Data: PMC5564291 (Cell, 2016)
# Assays:
# Experiment in all cases: ITC
# [1] = biological target: PSD-95 PDZ3 (aa R306–E398) (human) (UniProt P78352)
# [2] = biological target: PSD-95 PDZ3-C (aa R306-S412) (human) (UniProt P78352)
# [3] = biological target: PSD-95 PSG WT (aa R306-L721) (human, UniProt P78352-3 306-721)
Kd [1],fold higher affinity than PDZ3 [2],Molecule,binding result [3]
27 µM,15 fold,N-terminal thioredoxin-tagged last 30 residues of SynGAP (SynGAP PBM) (domain or fragment),–
–,–,"SynGAP CC-PBM L-D&K-D mutant (L1202D and K1252D) (domain or fragment, mouse, UniProt J3QQ18 1147-1308, looked up) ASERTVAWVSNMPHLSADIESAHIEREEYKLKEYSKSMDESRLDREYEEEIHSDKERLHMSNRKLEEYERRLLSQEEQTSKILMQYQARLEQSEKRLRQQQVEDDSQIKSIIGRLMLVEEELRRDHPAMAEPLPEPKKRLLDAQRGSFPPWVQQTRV",binds
